Assay results: the domain aggregation screens of Martell et al. (2025)

assay: soluble fraction after stress (log2 fold change); higher = more stays soluble; pooled small domains, quantitative proteomics; conditions: stress: pH 4
Method in brief: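 Aggregation propensity is read out as the fold change in how much of each domain remains soluble after acid stress. The custom small-domain libraries were pooled, held at pH 4 and analysed with high-throughput quantitative proteomics. On the log2 scale used, higher values mean more of the domain stayed soluble.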

Row | Sequence | soluble fraction (log2)
1 | HMDQESFGYFHVKYADVKQVADLVQKLNIPAVTWADERTRRLVALGSPATLQRISQVLNMVDL | -0.476
2 | HMDGPGAGGRFLAEDLGTGKMTLEALQRHYVTLVYSRTGKYEETARRLEIDRRTVKKYLDEELLAELRET | -0.0817
3 | HMVVLPPTEDAPEWAQVFDRLGRPESADGYKLPVPEGADPAFAKLASAKMHELGLSAKQGAALAAWWNEQA | -0.332
4 | HMRRGKLGMASRLEQIPGIGPKKRKALLKAFGNSIDAIKSAPVEDLMKVKGINLVLAESIKEL | 0.374
5 | HMKNDNIHMMASKINGIALEVGVLTPGMHPKNDLSEGEVGYIVTNLKTTREAKVGDTVTLAKKPAATPLPG | 0.187
6 | HMSFGKKLRSLRQEKKLSQVELSKKLNVTSQALSQYELGKRIPDAEMIIRIADFFDVSVDYLLDRT | -0.137
7 | HMSIYDAPIEDLKFSTRIFNSLKRADIHTVADLIAHSRDDLMKVRNLGATSLDELIEKLGTHGLQLADP | -0.356
8 | HMDNREKLRQEFLENLKELQEQNDIPQQEIDRVILDYDGVAEFLEDEGALKRYGGQLVDMTAYRAGAIPS | -2
9 | HMGDIFTAEDAKERIDYSGVDGIMLARGIFGNPWLIRDIREYLEYGKILHPVTQLDRVNMAIEHTRKT | -0.25
10 | HMPGRKTTFEERLSIIEDLIKHDVNYSWAVDKYHVSYQQVYGWYQKYRKSGNDPQSLRDRRGK | ≥ 0.43
11 | HMNALREVNTSILNVRSGAGTNYSKIGSLTQATRVSVISESNGWSKINYNGKVGYVSSQYLS | ≥ 0.43
12 | HMEIEEIDYGTFLQMVEDGVVEKIELTDTQIFLTSTVDNDDKVYTTGVMPDQDLTNRLIEAGVVNFGKVV | -0.956
13 | HMAQASEPMLALIRLKWWEEQINSPVKGDSLPLLSQLNSHISAGYLSRSQVTSLIQRWQDYA | -1.18
14 | HMKGKITTNWVSLTSDLGWLRSELYSSGSVLEERISNEGLIELHLENFQNDLIKLLEVEGFDLIKE | -1.73
15 | HMRYLHTMIRVSDLEESLNFFKLLDIHEVSRKENEQARFTLVFLSATGDEKLVENAKSPLIELTFN | -0.471
16 | HMDSPVLTAEIKALIDKELEQNAVKLATGLKKQRKRATDIHDALIRQGHEVSYRTVVRYIRNKTAQTS | ≥ 0.43
17 | HMLLSEPSVLKFNDDNSYEIVSGFLTEYKDKIVKIERRYKKATVKITVAGEEKEIKVSFVEDTE | -1.13
18 | HMDSEKVLTNLKEELVLQLSNIEPYGYVPSQYWYSKVQRVQSVQELGKYVDGDLEAFVMKYAEDWESQK | -0.951
19 | HMDRPARDEAQSWLADVLADGPVPTAEIREEAEAAGLAWRTIQRARIALSVEPIRGDGRNAWLWQLPG | 0.377
20 | HMNINLNVGKRLKSIRQNKELSLDEVSNLTNVSKPALAQIERGASSPTINTLWKISKGLKVPLSYFLQE | ≥ 0.43
21 | HMAHKYYSIMRPVSIGTFPDNGTILGIVNFDTRQMVESIGKMAWGYINYGKPLTEKQISDYELVAE | 0.361
22 | HMNDTNEEAVLSIILKNPQATQGAIAKEVGASLSTVKRIMRNLQKSGKLRREGTNRNGSWVVTGQK | 0.136
23 | HMTNIDIEKSIKNTITANYDDVLNYHNEDDNKTFASGDSRYSFDYDEKTKTLIVFTNSKVDAVFVDGIKKK | 0.255
24 | HMKWYDSDKGFGFLSQEEGEDVYVRSSALPAGVEGLKAGQRVEFGIASGRRGPQALSL | -0.71
25 | HMDGASLLDIDGDGKVTPTIDGLLLMRWQFGTRGAALIGGISFPAGALRTTVNAIELHMRRLSETT | -1.52
26 | HMAPLADQIVDLLKEHDGFLPLHDNSSPEDIRATVGTSKKAFKQAIGGLFREKRIVIGPTGIRLIS | 0.146

Row | Sequence | soluble fraction (log2)
27 | HMHGTIHSAAYGGDIEAVKKFLAAGADVNANGGGRTPLDLAIQVKNTEIADLLRKHGGKTGDELKA | 0.398
28 | HMINNINKLPETQFIKLFANIFENSQFIAVALYKKKGDGFSDFKDLINKIMDIFENTTKEKKLKILNA | -0.173
29 | HMSWEELLEHLEKAAERGEEVRIAGVTLHDEEDFKRALRWLKEWL | -1.47
30 | HMANMTAKQINMFGDKLSRDKDFQSYYIAKSGDSREQYAQDIKGKLLDPFYVNAWMPYLEKIGFVPS | 0.106
31 | HMSSYMQMQLERLESLLQKNDLTDSDKYDIRQLVEDLDKVPESVSPNLVGAYMTIKNRYASVLKTVL | -0.835
32 | HMWVETITTKAGITKYKFQERYTDTYSGKTKRVSVTYTSNSRQAYKLAQAELQKKIDLATNTD | 0.112
33 | HMLKLSGEESQQLALRLREELARRRITRQGLADAAKISISTLEQVLAGRRTFTLATIVRLEEGLGIKLL | 0.387
34 | HMGQPAVSSRDVAEQFGKEHRNVIQSIKNLIAENSALTFMFIEDTYTAGTGKKYPMYYMNRDGFTLLA | -0.15
35 | HMAIDPLLDKGYEQYDKGEFTEAVKSFNRAIEIDPKNAEAHFLRAMTYQGLALSKLAVADLEKAIV | -0.127
36 | HMGQAELPYSEFLREVNNGQVKSVIIEGSEITGFYKTSGTSFNVIAPDDPKLVERLMAQGVEVRAQPA | 0.239
37 | HMEESEMIAFATVAHRIVGKPVEAVMRSYRNRDNIPADIAAIVSSKFTFSVTMAEASYRNPKKSYQVNSII | 0.22
38 | HMGKLGENIKRIREGMGLSQRQFGELIGKSDSQIWSYENDRTDILASTLYKIAAVANVDFNNLMAGIIP | -1.35
39 | HMISLPSYIREEATEVYNRLHDLGLEYTSLDVNDDSIPKGYVVRTVPEAGASVPAGQVVTVYVSLG | -0.231
40 | HMFWVESDVDFVDKTSAHNAIKENERVIGMYISYRLNGTWTTEQYVGIDTSKDNWENPDNWNIL | -0.381
41 | HMAGTDLSERESEIAMLLLKGYPYKLIASRLYISESTVKSHVQNIYGKLGIHSRTELIEQFSAS | -0.966
42 | HMSRTLLVYVTGAVRQPGVYELPEGSRFFDAVKAAGDVLPYAVMEDINMAEPLSDGMKIHIPLDPEQ | -1.01
43 | HMKIKKIWFDGDYIYGMDERNNTYRQSLLWYSKLRNASAEERERYTFSTIGIHWRELDEDVSFESF | -1.78
44 | HMDMAYEVVKAFHDLQDYKDVKGGKVYHHYDVGDTYPRQGLDPAPDETRIEELLSSGNAQGVPLIAEV | -0.219
45 | HMEDDIRSSIRTLDQFISKNQITLSKDVKNYILQLLSNDRMVTINELEKIKIYYDSNENIDLDTVKILLN | -1.4
46 | HMEQIPEEYKKIYSLITDIPININDIAKKSLLELREVSSKLTMLELDGKVVKLPGNMYIRGDL | -0.0736
47 | HMGGKYKGVIIGHLIDKTLRYNELQKLISHATPKMLIQQLKELEADGIIQRKLYPVVPPKTEYSLTERG | -0.0376
48 | HMDIFLPDVKGYDLIPSFRRHLPDIDVIAMTGYNTRALESAVRQQDVLFYMIKPFEASQLKEILEHLVK | -0.279
49 | HMDVSASEVGLTGRQTDVLSLMVKGRSNRDIAELLGLSEGTVKIHITAIFKALGVASRTQALVAAARLGLK | -0.212
50 | HMSTKLLEVNIFDDSKWVNKTIMDSDIPEDILIVMIKRGDEVIVPKGSTIINKGDILVLSANNFDNLLN | -1.97
51 | HMKLTINIDAAHDGKTIKQLFAEKGYSLELIKKFKYDGAIEVNGERKTVRWVLREGDLLVLEAN | -0.683
52 | HMARKTIFHSLLGELEQRIGRLPAGTILPAEQALADEYGVSKPTLRRALAELAEHGLITKENGIGSVVI | ≥ 0.43

Row | Sequence | soluble fraction (log2)
53 | HMNADTVIGKAGTVIEKIDNVAATGAVKIDGKVWTARSERDNITIDEGTLVKAMAIEGVKLIVEPVT | 0.0947
54 | HMTMKVTADILNMRSEASTNSDIVTKLKKDDELKVIEETKDDDGVTWVKVDFNGQVGFVSKEFLG | -0.623
55 | HMRQSKMREAILAAVSAQKLEISDLHVWRIGEQRYAAIIGLATTQAESVSALRDSLAQMDKLVHLTIDQ | -1.16
56 | HMAQRAADEARTHEILGLLRQARAALDHGGTARAARLRASIAEKLPAAPALPAWFARQLEQVDSQLAELQD | -0.568
57 | HMGISVEVPDLKNMSVAEAGSLLKNSGLSYAVVDSDYVKTISPGKILDQNPGRGLRVKKGRIVYLTINSL | -0.283
58 | HMKVTRWEDTGMKPAEAQEWQHYDFKPQEAMNWRDAGFVPLVARTWSDKGFDASEAQAWRDSVRNS | 0.123
59 | HMGLVDSLEPLLRRVYEALPQRRSMTTERLAVAAGLDEESVKVALARLQLSAFVGVDERGWHRSL | -0.0455
60 | HMDNTSNVEKTLRFIRQRGKVSRKEVETLLGSSKFPAISALNELLAENKIVKTGSGPAVRYSVS | 0.018
61 | HMLPVLEIGTMIRIIRQPHFGTIARVVALPEELTKVESETLVRILDAEFDDGTRVRIPRANVEVIE | -1.37
62 | HMDAVDKDGNHMTFKKWSEQLQEAFHALELYDTTRAKQILSELVKFQVDSDITKSLKAIITNIDDMMA | -1.5
63 | HMTISPYTKDDFLKGTKPFEDVYAHKADPFVHDRALEQMTIWAKSVGVNGFKKLYKAYIDSLRIKNKEI | 0.00637
64 | HMNLDVPGIIKRAKQALNLKRDSELAEFLGVSRATVTNWAARNSIDFRLLLDKLGNTVDYNWLLLGKGNPK | -0.188
65 | HMDLEELSNKMNNVFESLSSDLRDIIIMSDIEGLSYEEISHKINIPIGTVRSRLHRARDLMVRVIKEN | -0.713
66 | HMESGNLIFTNAPIADVVNAIETRYGKKLQASNQTSDLQFTGIFKNTDEFSTVVKTIEIALGLQFEV | -1.37
67 | HMNIAEIGQKVAQQRVALGISQERLAKLSDLSRSTIHHLEHGTLHEIGAAKLFKLLSLLDIQLK | 0.159
68 | HMQTAAANPSPESILQAREAAGLSQSEAGALIYSGLRSWQHWEWGTRRMHPGLFELFLKKTGQI | -1.02
69 | HMLDYKSALQELLQAQRRSRPRYEVISTEGPDHERVFEVAVWLDNEELGRGKGRSKREAEHQAAQAALTQL | -0.626
70 | HMNFAERIKELRKEKGITQIDLAEAVGLSKGTVAMWEVDKREANFDTLNKLSDYFQVSIDYLLGRSNDRS | -0.206
71 | HMSINISFEPADHLGKDVIFIRFPYDNEWIQRVRKLKGAKWSQSQRAWHVPDTEHYRTLFQLPQKI | -0.704
72 | HMFVEKDSIINKGNNSYNFVITDNNNKVLVEYNGLLPDLFKEEQGVVIEGRLKSDFIIHAFTVF | -0.462
73 | HMQITDTEAIATTLDEIIAANPKEWERLKAGQEQLVKFFVGQVMRVTKGRANPQVVNDLLKERL | 0.186
74 | HMSTDNINYKNILIASLLIHAAKIDENYTENEKNIIKKALIELDEIDSKKADEIMILAEKKE | -0.271
75 | HMTKKSLFNQYLDDQKRLDIVTLQKAELVDLHKLADELNIDQYNQLKKNELIFKILQSNPSE | -0.361
76 | HMSRARSRQTSMLEAVAGLGPARRRALLKQFGGLQGVLRAGIEDLSRAPGIGPALAQAIFEHLHPGA | -0.0797
